# ± gives the uncertainty stated by the source.
# Experiment: protein stability index of a GFP-peptide fusion (yeast GPS) (PSI 1-4); higher = more stable; sorted into four equal gates, so the index is relative within each strain
# Method in brief: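 Plasmids isolated from each sorting gate were PCR-amplified and Illumina-sequenced, and barcodes assigned the reads to strains. The gates, four of equal size, were set by GFP/Cherry fluorescence ratio on mid-log cultures in leucine-free medium. These cultures were yeast carrying a pooled library of tiled 17-residue yeast protein peptides fused downstream of GFP on a plasmid that also expresses Cherry. The protein stability index is the sum of every gate's read frequency times its gate number.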
sequence,measurement,setting,value
TKGDTSKATGAPSANQG [RTT102],protein stability index,doa10∆,3.18 ± 0.065
same,protein stability index,pdr5∆,3.35 ± 0.074
same,protein stability index,san1∆,3.29 ± 0.045
same,protein stability index,ubr1∆,3.24 ± 0.059
TKGENYQLVKTLGEQLI [FAS2],protein stability index,doa10∆,3.06 ± 0.11
same,protein stability index,pdr5∆,3.24 ± 0.13
same,protein stability index,san1∆,2.6 ± 0.13
same,protein stability index,ubr1∆,3.27 ± 0.15
TKIIMATNRPDTLDPAL [RPT4],protein stability index,doa10∆,2.98 ± 0.065
same,protein stability index,pdr5∆,3 ± 0.063
same,protein stability index,san1∆,2.9 ± 0.054
same,protein stability index,ubr1∆,3.12 ± 0.1
TKLIISGQLNFEIDGDV [PCI8],protein stability index,doa10∆,2.57 ± 0.099
same,protein stability index,pdr5∆,2.16 ± 0.093
same,protein stability index,san1∆,1.87 ± 0.11
same,protein stability index,ubr1∆,2.23 ± 0.055
TKSGATTSEKQEVTNEA [GAL11],protein stability index,doa10∆,2.99 ± 0.28
same,protein stability index,pdr5∆,3.52 ± 0.19
same,protein stability index,san1∆,2.9 ± 0.28
TKWGLINYQVDSKLLPK [SWI3],protein stability index,doa10∆,2.8 ± 0.11
same,protein stability index,pdr5∆,2.41 ± 0.12
same,protein stability index,san1∆,1.92 ± 0.15
same,protein stability index,ubr1∆,2.55 ± 0.077
TKYERARILGTRALQIS [RPO26],protein stability index,pdr5∆,1.36 ± 0.24
same,protein stability index,ubr1∆,1.21 ± 0.13
TLELSAQFRVPRYHSKN [SWP82],protein stability index,doa10∆,2.52 ± 0.067
same,protein stability index,pdr5∆,2.72 ± 0.056
same,protein stability index,san1∆,2.49 ± 0.065
same,protein stability index,ubr1∆,2.74 ± 0.041
TLGVVGKSEKLSLLLVE [SKI6],protein stability index,doa10∆,2.8 ± 0.051
same,protein stability index,pdr5∆,3.04 ± 0.048
same,protein stability index,san1∆,3.11 ± 0.035
same,protein stability index,ubr1∆,2.96 ± 0.049
TLHLVLRLRGGGKKRKK [RPS31],protein stability index,doa10∆,2.34 ± 0.26
same,protein stability index,pdr5∆,2.32 ± 0.084
same,protein stability index,san1∆,2.83 ± 0.3
same,protein stability index,ubr1∆,2.86 ± 0.14
TLSLPDSQDYILSINAI [SMC1],protein stability index,doa10∆,2.85 ± 0.041
same,protein stability index,pdr5∆,2.95 ± 0.05
same,protein stability index,san1∆,2.9 ± 0.04
same,protein stability index,ubr1∆,2.87 ± 0.044
TLTASPDGTLIASAGKD [ASC1],protein stability index,doa10∆,2.86 ± 0.093
same,protein stability index,pdr5∆,3.19 ± 0.1
same,protein stability index,san1∆,3.12 ± 0.065
same,protein stability index,ubr1∆,3.14 ± 0.063
TLVHTRVKIANTSAATV [SSN2],protein stability index,doa10∆,2.35 ± 0.056
same,protein stability index,pdr5∆,2.31 ± 0.046
same,protein stability index,san1∆,2.32 ± 0.044
same,protein stability index,ubr1∆,2.57 ± 0.035
TLVNKSTGLKSASDALK [RPS1A],protein stability index,doa10∆,2.94 ± 0.11
same,protein stability index,pdr5∆,3.1 ± 0.11
same,protein stability index,san1∆,3.42 ± 0.092
same,protein stability index,ubr1∆,3.23 ± 0.074
TLYIGNTANGRPPVKAI [ECM29],protein stability index,doa10∆,1.84 ± 0.17
same,protein stability index,pdr5∆,2 ± 0.094
same,protein stability index,san1∆,1.99 ± 0.11
same,protein stability index,ubr1∆,1.47 ± 0.11
TMADAVRELGILCIFEG [SEC65],protein stability index,doa10∆,2.52 ± 0.06
same,protein stability index,pdr5∆,2.05 ± 0.071
same,protein stability index,san1∆,2.62 ± 0.063
same,protein stability index,ubr1∆,1.45 ± 0.062
TMRRQKLTILQEGIEAI [RET1],protein stability index,doa10∆,2.39 ± 0.076
same,protein stability index,pdr5∆,2.67 ± 0.051
same,protein stability index,san1∆,2.8 ± 0.078
same,protein stability index,ubr1∆,2.96 ± 0.062
TMTISHLLLGFQVSNVI [YJL039C/NUP192],protein stability index,doa10∆,1.41 ± 0.038
same,protein stability index,pdr5∆,1.72 ± 0.039
same,protein stability index,san1∆,1.75 ± 0.06
same,protein stability index,ubr1∆,1.77 ± 0.034
TNDDSIKNLTVQLSPSN [RGR1],protein stability index,doa10∆,2.8 ± 0.074
same,protein stability index,pdr5∆,2.79 ± 0.059
same,protein stability index,san1∆,2.56 ± 0.056
same,protein stability index,ubr1∆,2.58 ± 0.05
TNEFVGSPSLTSPQYIP [NUT1],protein stability index,doa10∆,2.85 ± 0.057
same,protein stability index,pdr5∆,3.04 ± 0.043
same,protein stability index,san1∆,3.06 ± 0.035
same,protein stability index,ubr1∆,2.93 ± 0.032
TNGKPDMAILERYYELA [ARP7],protein stability index,doa10∆,3.23 ± 0.088
same,protein stability index,pdr5∆,3.1 ± 0.097
same,protein stability index,san1∆,3.01 ± 0.075
same,protein stability index,ubr1∆,3.19 ± 0.06
TNLISKISLLRPSFQNN [SWP82],protein stability index,doa10∆,2.52 ± 0.05
same,protein stability index,pdr5∆,2.69 ± 0.05
same,protein stability index,san1∆,2.53 ± 0.071
same,protein stability index,ubr1∆,2.72 ± 0.064
TNNEQLQQELATTQDQV [NUT2],protein stability index,doa10∆,3.06 ± 0.048
same,protein stability index,pdr5∆,3.25 ± 0.062
same,protein stability index,san1∆,3.11 ± 0.039
same,protein stability index,ubr1∆,3.19 ± 0.038
TNSSILLGKILPREEHD [RRP6],protein stability index,doa10∆,1.55 ± 0.064
same,protein stability index,pdr5∆,2.18 ± 0.16
same,protein stability index,san1∆,1.61 ± 0.25
same,protein stability index,ubr1∆,1.58 ± 0.11
TNSVRLFEVNPSQTLFS [SRP21],protein stability index,doa10∆,2.65 ± 0.09
same,protein stability index,pdr5∆,2.51 ± 0.078
same,protein stability index,san1∆,2.2 ± 0.073
same,protein stability index,ubr1∆,2.56 ± 0.047
TNVLNFIKLQKIDIIEL [FAS1],protein stability index,doa10∆,2.35 ± 0.042
same,protein stability index,pdr5∆,1.94 ± 0.043
same,protein stability index,san1∆,1.91 ± 0.075
same,protein stability index,ubr1∆,2.05 ± 0.044
TNVPKAKKRKTLILIQN [SIR3],protein stability index,doa10∆,1.67 ± 0.18
same,protein stability index,pdr5∆,1.63 ± 0.12
same,protein stability index,san1∆,1.33 ± 0.22
same,protein stability index,ubr1∆,1.4 ± 0.1
TNVRLYSLLLASKGIDR [ECM29],protein stability index,doa10∆,2.13 ± 0.048
same,protein stability index,pdr5∆,2.79 ± 0.087
same,protein stability index,san1∆,3.48 ± 0.088
same,protein stability index,ubr1∆,3.33 ± 0.069
TNYYLTTARNDLGVVFA [CSL4],protein stability index,doa10∆,2.04 ± 0.066
same,protein stability index,pdr5∆,2.39 ± 0.078
same,protein stability index,san1∆,2.51 ± 0.075
same,protein stability index,ubr1∆,2.82 ± 0.072
TPLFPIDRNSTILYLNV [IRR1],protein stability index,doa10∆,2.71 ± 0.083
same,protein stability index,pdr5∆,1.87 ± 0.072
same,protein stability index,san1∆,2.93 ± 0.092
same,protein stability index,ubr1∆,2.69 ± 0.098
TPQQLQMIQQRHQQLLR [SNF5],protein stability index,doa10∆,1.9 ± 0.044
same,protein stability index,pdr5∆,2.32 ± 0.045
same,protein stability index,san1∆,2.04 ± 0.052
same,protein stability index,ubr1∆,1.74 ± 0.045
TPSTSSNGEFIPHIFYS [CSE2],protein stability index,doa10∆,2.36 ± 0.054
same,protein stability index,pdr5∆,2.44 ± 0.043
same,protein stability index,san1∆,2.62 ± 0.044
same,protein stability index,ubr1∆,2.82 ± 0.048
TPYNIDRLTQLVRNGPN [RPO21],protein stability index,doa10∆,3.05 ± 0.12
same,protein stability index,pdr5∆,3.19 ± 0.13
same,protein stability index,san1∆,3.17 ± 0.076
same,protein stability index,ubr1∆,3.18 ± 0.2
TQEEVELPLEDFKAKYC [RPB5],protein stability index,doa10∆,3.33 ± 0.11
same,protein stability index,pdr5∆,3.25 ± 0.11
same,protein stability index,san1∆,3.58 ± 0.11
same,protein stability index,ubr1∆,3.28 ± 0.071
TQEIRPVNTGVLHVSAK [RRP40],protein stability index,doa10∆,2.72 ± 0.12
same,protein stability index,pdr5∆,2.91 ± 0.1
same,protein stability index,san1∆,2.74 ± 0.081
same,protein stability index,ubr1∆,3.01 ± 0.11
TQQPGTNSHYNNTNTDN [SNF2],protein stability index,doa10∆,3.17 ± 0.046
same,protein stability index,pdr5∆,3.26 ± 0.04
same,protein stability index,san1∆,3.21 ± 0.036
same,protein stability index,ubr1∆,3.204 ± 0.028
TQTYMQMIELNRQICLV [GRR1],protein stability index,doa10∆,2.35 ± 0.13
same,protein stability index,pdr5∆,1.44 ± 0.073
same,protein stability index,san1∆,1.35 ± 0.19
same,protein stability index,ubr1∆,1.25 ± 0.047
TRAMEYLKFRELPAGQN [RPB2],protein stability index,doa10∆,2.4 ± 0.072
same,protein stability index,pdr5∆,2.75 ± 0.084
same,protein stability index,san1∆,3.13 ± 0.071
same,protein stability index,ubr1∆,3.02 ± 0.13
TRELAEEGYSGVEVRVT [RPS3],protein stability index,doa10∆,2.4 ± 0.059
same,protein stability index,pdr5∆,3 ± 0.073
same,protein stability index,san1∆,2.67 ± 0.053
same,protein stability index,ubr1∆,2.86 ± 0.04
TRFEVELEFIQSLANIQ [SOH1],protein stability index,doa10∆,2.15 ± 0.082
same,protein stability index,pdr5∆,2.29 ± 0.061
same,protein stability index,san1∆,2.14 ± 0.1
same,protein stability index,ubr1∆,2.5 ± 0.058
TRIAGVVYHPSNNELVR [RPS8A],protein stability index,doa10∆,2.666 ± 0.019
same,protein stability index,pdr5∆,2.47 ± 0.018
same,protein stability index,san1∆,2.56 ± 0.02
same,protein stability index,ubr1∆,2.652 ± 0.013
TRIQYVDFACCTNLTNR [GRR1],protein stability index,doa10∆,2.82 ± 0.057
same,protein stability index,pdr5∆,2.6 ± 0.069
same,protein stability index,san1∆,2.58 ± 0.1
same,protein stability index,ubr1∆,2.36 ± 0.049
TRKAVRPQKLRASLVPG [RPL6B],protein stability index,doa10∆,2.26 ± 0.11
same,protein stability index,pdr5∆,1.67 ± 0.11
same,protein stability index,san1∆,2.9 ± 0.14
same,protein stability index,ubr1∆,1.83 ± 0.046
TRNEQTTIQTEKVRPTP [MCD1],protein stability index,doa10∆,2.82 ± 0.04
same,protein stability index,pdr5∆,2.99 ± 0.046
same,protein stability index,san1∆,2.88 ± 0.036
same,protein stability index,ubr1∆,3 ± 0.031
TRNITDYSINSRYEPKV [PRE7],protein stability index,doa10∆,2.62 ± 0.053
same,protein stability index,pdr5∆,2.7 ± 0.049
same,protein stability index,san1∆,2.99 ± 0.046
same,protein stability index,ubr1∆,2.88 ± 0.047
TRSHEYGRKSFRNNKND [REC8],protein stability index,doa10∆,3.2 ± 0.11
same,protein stability index,pdr5∆,3.16 ± 0.067
same,protein stability index,san1∆,3.29 ± 0.051
same,protein stability index,ubr1∆,3.3 ± 0.067
TRSLKYGKLRNGMFCQV [RRP4],protein stability index,doa10∆,1.42 ± 0.081
same,protein stability index,pdr5∆,1.11 ± 0.1
same,protein stability index,san1∆,1.09 ± 0.13
same,protein stability index,ubr1∆,1.07 ± 0.12
TRSQFCLNTQRGDSTET [RRI1],protein stability index,doa10∆,3.07 ± 0.094
same,protein stability index,pdr5∆,3.32 ± 0.094
same,protein stability index,san1∆,3.22 ± 0.063
same,protein stability index,ubr1∆,3 ± 0.076
TRVEGSGGGDSEVQRTM [RPT6],protein stability index,doa10∆,2.73 ± 0.098
same,protein stability index,pdr5∆,2.65 ± 0.13
same,protein stability index,san1∆,2.98 ± 0.087
same,protein stability index,ubr1∆,3.19 ± 0.051
TRYELYIKNILEAPVKS [YLR335W/NUP2],protein stability index,doa10∆,1.67 ± 0.045
same,protein stability index,pdr5∆,2.1 ± 0.054
same,protein stability index,san1∆,1.66 ± 0.087
same,protein stability index,ubr1∆,1.56 ± 0.057

# Source: the supplement of paper PMC9732359
